Literature values as cited in paper PMC8604983, “A glucagon analogue decreases body weight in mice via signalling in the liver” (Scientific Reports, 2021).

Details: in rodents
Experimental: Native glucagon has a half-life of approximately 2 min in rodents. To study the effects of sustained GCGR activation, we developed a glucagon analogue (GCG104) through modification of OXM with the aim of reducing its GLP-1R activity and decreasing its rate of clearance. Select amino acid substitutions were made and a C18 lipidated tail was added (Fig. 1a).

For glucagon [Native glucagon], the half-life is given as “approximately 2 min”.
